This note sets out measurements from the supplement of paper PMC12042874.

± gives the uncertainty stated by the source.

The data set in a line: amyloid nucleation score (Sup35N fusion, yeast selection) (log enrichment); library NNK3; higher = more nucleation; inactive = no reads after selection. In short, it runs like this:
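Growth for 7 days at 30°C on medium lacking adenine and uracil followed a 24-hour induction with 100 μM copper sulfate of psi-negative yeast expressing peptides of 20 random codons fused to Sup35N. Input and output plasmid inserts were sequenced with Illumina, and sequences with under 100 input reads were excluded. Nucleation score is the DiMSum log enrichment of output over input reads, centred on the mode score of non-aggregating sequences.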
On to HKMRRAYLKECFVWDYVSCD, for which the amyloid nucleation score entry is “inactive”.

Take KVGFHHDTVLAGSNQRVLFF: the amyloid nucleation score was -0.354 ± 0.88.

Turning to FVSIWEHNSIVRRCGVRLDR, the amyloid nucleation score result is “inactive”.

For the substance RHYLLCYIKRHTRLQIYKFS, the amyloid nucleation score entry was “inactive”.

In the case of RATKEGKRLDML, the amyloid nucleation score is -0.725 ± 1.9.

In the case of WVHSVKENVSCGSRF, the amyloid nucleation score entry is “inactive”.

In the case of CMAMSFPWWWYTGIITYSL, the amyloid nucleation score entry is “inactive”.

VDYKLFNFDGVCITTVFVHY had an amyloid nucleation score of 2.24 ± 0.095.

Take LIDWTDNRYPYRHHHFCPNA: the amyloid nucleation score result is “inactive”.

Regarding QSNEASCSGCLISKVLKNDN, the amyloid nucleation score result was “inactive”.

Turning to EKNNNRDGTDAVVIGNHKAG, the amyloid nucleation score entry is “inactive”.

On to TGDGTWS, for which the amyloid nucleation score entry was “inactive”.

RWWKKTIQIFKCFVKHLEWG: the amyloid nucleation score result is “inactive”.

Consider RDSRRETKTNIWIVRYTLW, for which the amyloid nucleation score result is “inactive”.

FWFHLADMVECKCIDVLYYL: the amyloid nucleation score entry is “inactive”.

HNNIAFSLVVNDESVLWCFN showed an amyloid nucleation score of 1.97 ± 0.053.

Take YRHPTIECWSKMRCALVVCT: the amyloid nucleation score result is “inactive”.

As to CVCVGDSDYCSQSVCVTSYR, the amyloid nucleation score entry was “inactive”.

Consider ESNVVPLNSHR, for which the amyloid nucleation score result is “inactive”.

In the case of PKTIRDVYVDGEEHVHFRWR, the amyloid nucleation score result was “inactive”.

On to LIGLMWFVMWFFMARMREIN, for which the amyloid nucleation score entry is “inactive”.

Turning to LVVVECSSLMRADLCSTQVM, the amyloid nucleation score result is “inactive”.

Consider FCLFLSCGDKSILGA, for which the amyloid nucleation score result is “inactive”.

Substance LDYAFCILNNNCREC gave an amyloid nucleation score of 3.05 ± 0.057.

DNIGSCHDSRAYVS: the amyloid nucleation score entry is “inactive”.

Regarding DIFVNAV, the amyloid nucleation score entry is “inactive”.

With LACLILS, the amyloid nucleation score result is “inactive”.

For the substance IFSLLPVDILVTLY, the amyloid nucleation score entry was “inactive”.

In the case of TENISVCGYYYRMIALDMFW, the amyloid nucleation score entry was “inactive”.

Consider LSCMNRTQCHASFSLPL, for which the amyloid nucleation score result is “inactive”.

Turning to VARIIYQRIW, the amyloid nucleation score entry was “inactive”.

With SMRLVAWYW, the amyloid nucleation score result is “inactive”.

With ALTAYLVNVWSKYTGMLFSC, the amyloid nucleation score entry is “inactive”.

In the case of TVPFTPIICESVFSD, the amyloid nucleation score entry is “inactive”.

For VTELDEWSGIVVEGYNACSS, the amyloid nucleation score entry is “inactive”.

For DSRFEWLLTLYYRFYLHNGR, the amyloid nucleation score result is “inactive”.

Consider GVLYDGVGDNHCCGSRKLVL, for which the amyloid nucleation score result was “inactive”.

As for QCSWLCIWMGVYLTLILSCA, the amyloid nucleation score amounted to 0.805 ± 0.17.

Consider QLDHGH, for which the amyloid nucleation score result was “inactive”.

In the case of MRMTTYSGIRVGIIERIMIN, the amyloid nucleation score entry was “inactive”.

LPYTVQAVVIRVDKSYVSSV: the amyloid nucleation score entry was “inactive”.

In the case of SMFYMRFHVQ, the amyloid nucleation score result is “inactive”.

Consider LVICGYDIRN, for which the amyloid nucleation score entry is “inactive”.

Substance ESCWHLAEVRVIYGHRSMRP registered an amyloid nucleation score of 0.854 ± 0.2.

On to GCLQTIADWFNFSNMN, for which the amyloid nucleation score entry is “inactive”.

Consider SYSWYFYSAGTSWI, for which the amyloid nucleation score entry was “inactive”.

For IKAGTEVVFRTSDLFMTMLQ, the amyloid nucleation score entry is “inactive”.

Consider GGHENKKRYSSRTIGMCVHE, for which the amyloid nucleation score entry is “inactive”.

In the case of ENNRCYYKMF, the amyloid nucleation score result was “inactive”.

On to YSWYEDPWWGERFWP, for which the amyloid nucleation score entry is “inactive”.

With LSDLEDWRNYRWSKEDLKVE, the amyloid nucleation score result is “inactive”.

Take QFVASELYVIGFTAVWLGCI: the amyloid nucleation score is 0.902 ± 0.2.

In turn, RSAVISTLRYSW showed an amyloid nucleation score of -0.289 ± 0.41.

In the case of RYWWNYWLLPRWFFVQLGSC, the amyloid nucleation score entry was “inactive”.

Turning to MSEFSQCRFKSHTFFVTSNR, the amyloid nucleation score result is “inactive”.

With IGRAIVHWYWFSSL, the amyloid nucleation score result is “inactive”.

As for DLTSIVWSRAYVVSY, the amyloid nucleation score result was “inactive”.

For CYGALVVQTAYME, the amyloid nucleation score result was “inactive”.

As to SWFWVHHEFVFKALGTLIRT, the amyloid nucleation score result was “inactive”.

For FVVSLQYMCQSRYISPCTPI, the amyloid nucleation score result is “inactive”.

For the substance PAELGVVSMCGFLGSAAYQE, the amyloid nucleation score entry was “inactive”.

Turning to FGSSMYRMKPVDC, the amyloid nucleation score entry was “inactive”.

For NFLRCVHFLKFFMDFNGTSG, the amyloid nucleation score entry was “inactive”.

Take RVLQKAPRWAMGFARW: the amyloid nucleation score result is “inactive”.

Regarding YRDRYLDPLWAD, the amyloid nucleation score entry was “inactive”.

With SSPRSMASYQRSKIRWVSEF, the amyloid nucleation score result was “inactive”.

Take CVPHRRAIVGFFRGCVNAAS: the amyloid nucleation score entry is “inactive”.

LCVSCIDSFLGEMVFGLEVI: the amyloid nucleation score result was “inactive”.

The substance CIYNVKALIQRVWIMIEVTS showed an amyloid nucleation score of 0.707 ± 0.13.

Regarding VYWRTVFNLRLVLKSYGAMR, the amyloid nucleation score result is “inactive”.

Turning to LYFSNRTIKEYIVN, the amyloid nucleation score result is “inactive”.

Regarding SFMITFLIMRHVASFA, the amyloid nucleation score result is “inactive”.

For the substance NAQDPIGSGYVQ, the amyloid nucleation score entry is “inactive”.

Take VGQYDTFGLRHHGGYRMRRG: the amyloid nucleation score result was “inactive”.

In turn, LLIKAAFGKMVRCKFRLIEW returned an amyloid nucleation score of -0.454 ± 1.4.

As to PSTSVPTDMMRFSIYSLLRS, the amyloid nucleation score result was “inactive”.

RAGYVWTAVLRPHSNVAWFV: the amyloid nucleation score result is “inactive”.

Regarding GSNRQTVRFNWS, the amyloid nucleation score entry was “inactive”.

As to LILSSCVKGPVSCRPM, the amyloid nucleation score result was “inactive”.

NSCTDSGPMGTSFSCTLGF: the amyloid nucleation score entry is “inactive”.

With GLYMKVKFGYTEWQDFGQSS, the amyloid nucleation score is -0.237 ± 0.69.

Consider YFTNDQNKQGFHWMGYMSHI, for which the amyloid nucleation score entry is “inactive”.

With RMPYKMQFFCNLWLSVYSTL, the amyloid nucleation score entry is “inactive”.

As for NCCPIIPVDYNYNRLPIIVG, the amyloid nucleation score result was “inactive”.

Consider DKKVSISRVSR, for which the amyloid nucleation score entry is “inactive”.

Consider PLSTITDGLMRSLVTLVGHS, for which the amyloid nucleation score entry was “inactive”.

Consider TTCYTLFSTDENDNSKWICG, for which the amyloid nucleation score entry is “inactive”.

For the substance RRGNDRKRLWAVNLDTGNFL, the amyloid nucleation score entry was “inactive”.

As to HFSSYDTDRINAVPKIWTIR, the amyloid nucleation score result was “inactive”.

Regarding YNRADSIRFQ, the amyloid nucleation score result is “inactive”.

On to GCERMFIMVYSL, for which the amyloid nucleation score entry was “inactive”.

As for VHIYSCYTRALDGNGAHSNN, the amyloid nucleation score entry was “inactive”.

The substance LFKLSMQLCNT displayed an amyloid nucleation score of 1.71 ± 0.076.

In the case of RSQSVQKIEATLSLLIGAPK, the amyloid nucleation score entry is “inactive”.

Take RLFFGYCRMDVIFAPYISCV: the amyloid nucleation score result is “inactive”.
